Data reported in publication PMC11754596.

Biological target: p53 (UniProt P04637)
Test: anti-Flag IP, anti-HA blot
Settings: reference: HA-STAT1 wild type; sites Y701

binding against the reference: weaker
Substance: STAT1 (from UniProt P42224) HA-STAT1-Y701F
